Patent US10781456B2, “Carbon-neutral and carbon-positive photorespiration bypass routes supporting higher photosynthetic rate and yield” (Max-Planck-Gesellschaft zur Förderung der Wissenschaften …, priority 2015, dated 2020)
Like-named read-outs stand apart in the source and are kept apart here.

Tests used:
[1] = target: D-fructose 6-phosphate aldolase encoded by E. coli gene fsaA (UniProt P78055); details: cited from earlier work
[2] = target: D-fructose 6-phosphate aldolase encoded by E. coli gene fsaB (UniProt P32669); details: cited from earlier work
[3] = substrate: CC(C)(COP(=O)(O)OP(=O)(O)OC[C@H]1O[C@@H](n2cnc3c(N)ncnc32)[C@H](O)[C@@H]1OP(=O)(O)O)[C@@H](O)C(=O)NCCC(=O)NCCSC(=O)CO; assay: PCCMe_D407I_Y143H activity for conversion of glycolyl-CoA into tartronyl-CoA (reaction 3#), coupled ATP hydrolysis (PK/LDH) assay; type: biochemical, Methylobacterium extorquens; details: other: 37° C., pH 7.7, ATP hydrolysis assay, 0.125-3 mM glycolyl-CoA, n=2
malonyl-CoA = malonyl-CoA reductase activity with physiological substrate malonyl-CoA; type: biochemical
Method: (§1) The kinetics of the MCRCa enzyme for enzymatically converting the substrate tartonyl-CoA into glycerate (via reactions 4# and 5 both catalyzed by MCRCa) were determined spectrophotometrically at 365 nm following the oxidation of NADPH. Per molecule tartronyl-CoA, two molecules of NADPH are oxidized by MCRCa (a first in reaction 4# and a second in reaction 5) The measurements were carried out at 37° C. in a total reaction volume of 200 μL containing 100 mM MOPS buffer (with 5 mM MgCl2, pH 7.5) with an initial NADPH concentration of 0.4 mM NADPH and 23 μg MCRCa.
(0.3 mM substrate, Kröger et al. 2011, loc. cit.). With tartronyl-CoA (0.25 mM), the specific activity at 37° C. was 0.6 U mg^−1.
(§2) An alternative enzyme for catalyzing the conversion of tartonyl-CoA into glycerate (via reactions 4# and 5) is the MCR from Erythrobacter sp. NAP1 (MCRE). It was tested for its activity with malonyl-CoA and for tartronyl-CoA with the assay described above for MCRCa.

tartronyl-CoA = assay: malonyl-CoA reductase spectrophotometric assay, NADPH oxidation at 365 nm, tartronyl-CoA into glycerate (reactions 4# and 5); type: biochemical; details: 0.25 mM tartronyl-CoA
Method: as §1, §2

[4] = substrate: CC(C)(COP(=O)(O)OP(=O)(O)OC[C@H]1O[C@@H](n2cnc3c(N)ncnc32)[C@H](O)[C@@H]1OP(=O)(O)O)[C@@H](O)C(=O)NCCC(=O)NCCSC(=O)C(O)C(=O)O; assay: MCRCa activity for conversion of tartronyl-CoA into glycerate (reactions 4# and 5), NADPH oxidation; type: biochemical, Chloroflexus aurantiacus; details: pH 7.5, 0.4 mM NADPH
Method: For the heterologous expression of the MCRCa protein (amino acid sequence is shown in SEQ ID NO: 8; corresponding nucleic acid sequence encoding the protein is depicted in SEQ ID NO: 7) the previously described pTRC-MCRCa plasmid (Kröger et al., 2011, Analytical biochemistry, 411(1), 100-105) was employed.
Cells were harvested at 10 000×g for 10 min and cell pellets were stored at −80° C. until purification of enzymes. Cell pellets of MCRCa and MCRE overexpressing cells were resuspended in two-fold volume of buffer AStrep (50 mM Tris/HCl, 150 mM NaCl, pH 7.8) containing 0.1 mg mL^−1 DNAse I. The cell suspension was passed through a French pressure cell twice at a pressure of 137 MPa and centrifuged at 100 000×g and 4° C. for 1 h. The supernatant was filtered through a 0.45 μm syringe filter and loaded at a flow rate of 1 mL min^−1 onto a 1 mL StrepTrap™ HP column (GE healthcare) which had previously been equilibrated with 5 column volumes of buffer AStrep. The column was washed with 20 column volumes of buffer AStrep and the protein was eluted with buffer AStrep containing 3 mM desthiobiotin. The enzyme was stored in buffer AStrep containing 20% glycerol.
as §1

[5] = as a substrate, read-out: KM for D-fructose 6-phosphate
[6] = bound stated for both fsaA and fsaB enzymes, read-out: KM (condensation of glycolaldehyde as donor with D-glyceraldehyde 3-phosphate as acceptor)
[7] = as a substrate, read-out: KM for dihydroxyacetone phosphate
[8] = other: 37° C., n=3, nonlinear regression
[9] = other: FIG. 8D and Table 5, 37° C., n=3

O=P(O)(O)OC[C@H]1OC(O)[C@@H](O)[C@@H]1O (stereo partly drawn) [D-arabinose 5-phosphate]
Km ([1]; read-out: KM for D-arabinose 5-phosphate): ~500 µM

O=P(O)(O)OC[C@H]1OC(O)(CO)[C@@H](O)[C@@H]1O (stereo partly drawn) [D-fructose 6-phosphate]
Km [1, 5]: > 6000 µM
Km [2, 5]: > 6000 µM

O=C[C@H](O)COP(=O)(O)O [D-glyceraldehyde 3-phosphate]
Km [1, 6]: < 1000 µM
Km [2, 6]: < 1000 µM

O=C(CO)COP(=O)(O)O [dihydroxyacetone phosphate]
Km [1, 7]: > 25000 µM
Km [2, 7]: > 25000 µM

B1: propionyl-CoA carboxylase from Methylobacterium extorquens (PCCMe) variant PCCMe_D407I_Y143H (pccA SEQ ID NO: 2; pccB_D407I_Y143H SEQ ID NO: 6) (Methylorubrum … (protein)
chain 1: MKDILEKLEERRAQARLGGGEKRLEAQHKRGKLTARERIELLLDHGSFEEFDMFVQHRSTDFGMEKQKIPGDGVVTGWGTVNGRTVFLFSKDFTVFGGSLSEAHAAKIVKVQDMALKMRAPIIGIFDAGGARIQEGVAALGGHGEVFRRNVAASGVIPQISVIMGPCAGGDVYSPAMTDFIFMVRDTSYMFVTGPDVVKTVTNEVVTAEELGGAKVHTSKSSIADGSFENDVEAILQIRRLLDFLPANNIEGVPEIESFDDVNRLDKSLDTLIPDNPNKPYDMGELIRRVVDEGDFFEIQAAYARNIITGFGRVEGRTVGFVANQPLVLAGVLDSDASRKAARFVRFCNAFSIPIVTFVDVPGFLPGTAQEYGGLIKHGAKLLFAYSQATVPLVTIITRKAFGGAYIVMASKHVGADLNYAWPTAQIAVMGAKGAVEIIFRAEIGDADKIAERTKEYEDRFLSPFVAAERGYIDEVIMPHSTRKRIARALGMLRTKEMEQPWKKHDNIPL
chain 2: MFDKILIANRGEIACRIIKTAQKMGIKTVAVYSDADRDAVHVAMADEAVHIGPAPAAQSYLLIEKIIDACKQTGAQAVHPGYGFLSERESFPKALAEAGIVFIGPNPGAIAAMGDKIESKKAAAAAEVSTVPGFLGVIESPEHAVTIADEIGYPVMIKASAGGGGKGMRIAESADEVAEGFARAKSEASSSFGDDRVFVEKFITDPRHIEIQVIGDKHGNVIYLGERECSIQRRNQKVIEEAPSPLLDEETRRKMGEQAVALAKAVNYDSAGTVEFVAGQDKSFYFLEMNTRLQVEHPVTEMITGLDLVELMIRVAAGEKLPLSQDQVKLDGWAVESRVYAEDPTRNFLPSIGRLTTYQPPEEGPLGGAIVRNDTGVEEGGEIAIHYDPMIAKLVTWAPTRLEAIEAQATALDAFAIEGIRHNIPFLATLMAHPRWRDGRLSTGFIKEEFPEGFIAPEPEGPVAHRLAAVAAAIDHKLNIRKRGISGQMRDPSLLTFQRERVVVLSGQRFNVTVDPDGDDLLVTFDDGTTAPVRSAWRPGAPVWSGTVGDQSVAIQVRPLLNGVFLQHAGAAAEARVFTRREAELADLMPVKENAGSGKQLLCPMPGLVKQIMVSEGQEVKNGEPLAIVEAMKMENVLRAERDGTISKIAAKEGDSLAVDAVILEFA
Km [3]: 1.0 ± 0.15 mM (glycolyl-CoA) mM
Vmax [3]: 1.5 ± 0.09 U mg^−1

B2: MCRE: malonyl-CoA reductase of Erythrobacter sp. NAP1, NCBI accession no. WP_007163680.1, SEQ ID NO: 10 (protein, listed as Erythrobacter sp.)
chain: MSKEGNAAKGRLEGKVALITGAAGNLGNEISRAFAREGAFVVMTGRTEERISAAREQLIADTGVAPERIDTAVLDGGNPDSIRAAMAKLRKEYGRIDILINNAGSAGPKQPLHNVPLSPQEMEACGDTETVRDAMLNILGVTWNMARIVAPMMPVGGAMVNISTIFSHTRYYGRTAYVVPKAALNALSNQLASELGPRGIRVNTVFPGPIESDRIRTVFAAMDEVQSQPKDTTANYFTGRMALTRSVNGKVDGKPLPNPKDIAGTCLFLASEEAAGIAGEEVDVTHGLSANRTSASTYMTRPSMRSLDGAGLNIFIVSGENWDDALVAAHTLIGSGAKVRLGLARNADVAQANARLKAQGIGEELTVTRFNRAEPDAMEDALAAFSGDVDGAITGAIILPVKPSGHFTGSLLAADDDTVTKFMDTELVGAIAVSRSLARYWHGREDLQSPPRCVFMTNPGDPLGNSFASVLSAGITQLIRIWRDEERVQAGNGSTEHAVWSNQIVRHTNTEDENTRFASGHATRVLFREQHIAEIDLKLPANISEETGSRKAMVGFAENITGLHLGKVAFITGGSAGIGGQVARLLALAGAKVMMVARRESELVAARDRIVGELQDIGFAGVERRVKYMADIDVSDFASLDKAVDATLEEFGRIDYLINNAGVAGAEDMVIDMEPEAWRFTLDANLISNYHLMQRVVPLMKEQGSGYVLNVSSYFGGEKFLAVAYPNRADYGLSKAGQRAMVEAFSPFLGPEVQCNAIAPGPVDGDRLSGTGGKPGLFQRRAKLILENKRLNAVYSAVIHAIREGGDAAKILTRLSRNSTSTLSHDAEAPEELRKLALDFASQGDGLCTWDQYLLTDAMAQRLLVRLQLGGFLLGSNEWASLSSSEQTWLKLSPPDDKPFLPAAQVDKVANGVGKGVISQLHLGAMPTEAEVAQATVFFLADRAVSGETFMPSGGLRVERSNTEREMFGSPKQERIDKMKGKTVWIIGEHLSDYVAATIEELVSGCGVAKVVLIAKDKSGEKAVRDQLPNDLSKDALEVLIAGDGLEEAMDEALGHWGKPTTVLSMPGEPLPDHLFEGGNPLSTKDFAHMVEANITRHYRVTRKASLYDGCQVVLVSPDVPYGSDGPGVALANFVKTSLHAFTATVAVENERLVHDVPVNQINLTRRVSSEEPRDADEHAEELRRFTRAVLLVGAPLPDAQDSRYRSKIYRGTSMTV
modifications: [CDS]1..3654 from SEQ ID NO 9
specific activity for malonyl-CoA, times lower than MCRCa (malonyl-CoA): 100 times
specific activity with malonyl-CoA (malonyl-CoA; 0.25 mM malonyl-CoA): 0.1 U mg^−1
specific activity for tartronyl-CoA, times lower than that of MCRCa (tartronyl-CoA): 6 times
specific activity with tartronyl-CoA (tartronyl-CoA; 37° C.): 0.1 U mg^−1

B3: malonyl-CoA reductase from Chloroflexus aurantiacus (MCRCa), SEQ ID NO: 8 (Chloroflexus aurantiacus) (protein)
chain: MSGTGRLAGKIALITGGAGNIGSELTRRFLAEGATVIISGRNRAKLTALAERMQAEAGVPAKRIDLEVMDGSDPVAVRAGIEAIVARHGQIDILVNNAGSAGAQRRLAEIPLTEAELGPGAEETLHASIANLLGMGWHLMRIAAPHMPVGSAVINVSTIFSRAEYYGRIPYVTPKAALNALSQLAARELGARGIRVNTIFPGPIESDRIRTVFQRMDQLKGRPEGDTAHHFLNTMRLCRANDQGALERRFPSVGDVADAAVFLASAESAALSGETIEVTHGMELPACSETSLLARTDLRTIDASGRTTLICAGDQIEEVMALTGMLRTCGSEVIIGFRSAAALAQFEQAVNESRRLAGADFTPPIALPLDPRDPATIDAVFDWGAGENTGGIHAAVILPATSHEPAPCVIEVDDERVLNFLADEITGTIVIASRLARYWQSQRLTPGARARGPRVIFLSNGADQNGNVYGRIQSAAIGQLIRVWRHEAELDYQRASAAGDHVLPPVWANQIVRFANRSLEGLEFACAWTAQLLHSQRHINEITLNIPANISATTGARSASVGWAESLIGLHLGKVALITGGSAGIGGQIGRLLALSGARVMLAARDRHKLEQMQAMIQSELAEVGYTDVEDRVHIAPGCDVSSEAQLADLVERTLSAFGTVDYLINNAGIAGVEEMVIDMPVEGWRHTLFANLISNYSLMRKLAPLMKKQGSGYILNVSSYFGGEKDAAIPYPNRADYAVSKAGQRAMAEVFARFLGPEIQINAIAPGPVEGDRLRGTGERPGLFARRARLILENKRLNELHAALIAAARTDERSMHELVELLLPNDVAALEQNPAAPTALRELARRFRSEGDPAASSSSALLNRSIAAKLLARLHNGGYVLPADIFANLPNPPDPFFTRAQIDREARKVRDGIMGMLYLQRMPTEFDVAMATVYYLADRNVSGETFHPSGGLRYERTPTGGELFGLPSPERLAELVGSTVYLIGEHLTEHLNLLARAYLERYGARQVVMIVETETGAETMRRLLHDHVEAGRLMTIVAGDQIEAAIDQAITRYGRPGPVVCTPFRPLPTVPLVGRKDSDWSTVLSEAEFAELCEHQLTHHFRVARKIALSDGASLALVTPETTATSTTEQFALANFIKTTLHAFTATIGVESERTAQRILINQVDLTRRARAEEPRDPHERQQELERFIEAVLLVTAPLPPEADTRYAGRIHRGRAITV
Km [4, 8]: 25.7 ± 2.6 µM
Vmax [4, 8]: 635±14 mU/mg
Km [4, 9]: 0.03 ± 0.003 mM (tartronyl-CoA) mM
Vmax [4, 9]: 0.6 ± 0.01 U mg^−1
